The values below are quoted from earlier work in PMC10674744.

By Kd is commonly meant the free concentration of one partner at which half of the binding sites on the other are occupied at equilibrium, for simple one-to-one binding.

Data set [1] concerns the target SNUPN NES NES (Homo sapiens) (UniProt O95149).
For data set [2], the target named is STRAD NES NES (Homo sapiens) (UniProt Q7RTN6).
Data set [3] has as its target PKI NES NES (Homo sapiens) (UniProt P61925).
Data set [4] deals with Rev NES NES (Human immunodeficiency virus 1) (UniProt P04325).

Take CRM1 (from UniProt O14980): the Kd in data set [1] is 12.5 µM; in data set [2] it was 10.3 µM; in data set [3], 0.034 µM; in data set [4], 1.18 µM.
